Laboratory results taken from the supplement of paper PMC10567573.

B1: RAD54B (parent)
chain: YVQEKRDGLKRRQQLEEELLRAKI

Variants of: B1
Test: protein stability index of a GFP-peptide fusion (GPS, HEK-293T) (PSI 1-6); higher = more stable
Conditions: c terminus: a fixed tail appended
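Note: lentivirally expressed fusions sorted by FACS into six bins by GFP to DsRed ratio, PSI derived from sequencing read proportions per bin multiplied by bin number.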

| Variant | protein stability index |
| --- | --- |
| YVQEKRDGLKRRRQLEEELLRAKI [Q13R] | 1.71 |
| YVQEKRDGLKRRNQLEEELLRAKI [Q13N] | 1.91 |
| YVQEKRDGLKRRYQLEEELLRAKI [Q13Y] | 1.9 |
| YVQEKRDGLKRRVQLEEELLRAKI [Q13V] | 2.4 |
| YVQEKRDGLKRRIQLEEELLRAKI [Q13I] | 2.49 |
| YVQEKRDGLKRRCQLEEELLRAKI [Q13C] | 1.84 |
| YVQEKRDGLKRREQLEEELLRAKI [Q13E] | 2.41 |
| YVQEKRDGLKRRPQLEEELLRAKI [Q13P] | 2.17 |
| YVQEKRDGLKRRDQLEEELLRAKI [Q13D] | 2.3 |
| YVQEKRDGLKRRGQLEEELLRAKI [Q13G] | 2.31 |
| YVQEKRDGLKRRAQLEEELLRAKI [Q13A] | 2.23 |
| YVQEKRDGLKRRTQLEEELLRAKI [Q13T] | 2.32 |
| YVQEKRDGLKRRSQLEEELLRAKI [Q13S] | 1.69 |
| YVQEKRDGLKRRHQLEEELLRAKI [Q13H] | 2.06 |
| YVQEKRDGLKRRFQLEEELLRAKI [Q13F] | 1.62 |
| YVQEKRDGLKRRKQLEEELLRAKI [Q13K] | 1.46 |
| YVQEKRDGLKRRLQLEEELLRAKI [Q13L] | 2.32 |
| YVQEKRDGLKRRMQLEEELLRAKI [Q13M] | 2.07 |
| YVQEKRDGLKRRWQLEEELLRAKI [Q13W] | 1.98 |
| YVQEKRDGLKRIQQLEEELLRAKI [R12I] | 1.99 |
| YVQEKRDGLKRCQQLEEELLRAKI [R12C] | 2.25 |
| YVQEKRDGLKRGQQLEEELLRAKI [R12G] | 2.25 |
| YVQEKRDGLKRTQQLEEELLRAKI [R12T] | 2.19 |
| YVQEKRDGLKRFQQLEEELLRAKI [R12F] | 2.28 |

| Variant | protein stability index |
| --- | --- |
| YVQEKRDGLKRQQQLEEELLRAKI [R12Q] | 2.35 |
| YVQEKRDGLKRHQQLEEELLRAKI [R12H] | 2.18 |
| YVQEKRDGLKRVQQLEEELLRAKI [R12V] | 2.04 |
| YVQEKRDGLKRNQQLEEELLRAKI [R12N] | 2.41 |
| YVQEKRDGLKRSQQLEEELLRAKI [R12S] | 2.06 |
| YVQEKRDGLKRDQQLEEELLRAKI [R12D] | 3.23 |
| YVQEKRDGLKRYQQLEEELLRAKI [R12Y] | 2.01 |
| YVQEKRDGLKRAQQLEEELLRAKI [R12A] | 1.85 |
| YVQEKRDGLKRPQQLEEELLRAKI [R12P] | 1.96 |
| YVQEKRDGLKREQQLEEELLRAKI [R12E] | 2.34 |
| YVQEKRDGLKRKQQLEEELLRAKI [R12K] | 2.47 |
| YVQEKRDGLKRWQQLEEELLRAKI [R12W] | 1.89 |
| YVQEKRDGLKRMQQLEEELLRAKI [R12M] | 2.02 |
| YVQEKRDGLKRLQQLEEELLRAKI [R12L] | 1.98 |
| YVQEKRDGLDRRQQLEEELLRAKI [K10D] | 2.04 |
| YVQEKRDGLERRQQLEEELLRAKI [K10E] | 2.58 |
| YVQEKRDGLLRRQQLEEELLRAKI [K10L] | 2.28 |
| YVQEKRDGLQRRQQLEEELLRAKI [K10Q] | 2.5 |
| YVQEKRDGLPRRQQLEEELLRAKI [K10P] | 2.55 |
| YVQEKRDGLYRRQQLEEELLRAKI [K10Y] | 1.77 |
| YVQEKRDGLGRRQQLEEELLRAKI [K10G] | 2.28 |
| YVQEKRDGLMRRQQLEEELLRAKI [K10M] | 2.46 |
| YVQEKRDGLVRRQQLEEELLRAKI [K10V] | 2.9 |
| YVQEKRDGLCRRQQLEEELLRAKI [K10C] | 1.83 |

| Variant | protein stability index |
| --- | --- |
| YVQEKRDGLIRRQQLEEELLRAKI [K10I] | 1.97 |
| YVQEKRDGLARRQQLEEELLRAKI [K10A] | 2.04 |
| YVQEKRDGLTRRQQLEEELLRAKI [K10T] | 2.5 |
| YVQEKRDGLHRRQQLEEELLRAKI [K10H] | 2.4 |
| YVQEKRDGLRRRQQLEEELLRAKI [K10R] | 1.98 |
| YVQEKRDGLNRRQQLEEELLRAKI [K10N] | 2.41 |
| YVQEKRDGLFRRQQLEEELLRAKI [K10F] | 1.6 |
| YVQEKRDGLWRRQQLEEELLRAKI [K10W] | 1.47 |
| YVQEKRDGLSRRQQLEEELLRAKI [K10S] | 2.49 |
| YVQSKRDGLKRRQQLEEELLRAKI [E4S] | 2.9 |
| YVQRKRDGLKRRQQLEEELLRAKI [E4R] | 2.31 |
| YVQPKRDGLKRRQQLEEELLRAKI [E4P] | 2.23 |
| YVQYKRDGLKRRQQLEEELLRAKI [E4Y] | 2.28 |
| YVQTKRDGLKRRQQLEEELLRAKI [E4T] | 1.49 |
| YVQWKRDGLKRRQQLEEELLRAKI [E4W] | 1.62 |
| YVQQKRDGLKRRQQLEEELLRAKI [E4Q] | 1.68 |
| YVQVKRDGLKRRQQLEEELLRAKI [E4V] | 1.6 |
| YVQEKCDGLKRRQQLEEELLRAKI [R6C] | 2.32 |
| YVQEKHDGLKRRQQLEEELLRAKI [R6H] | 2.1 |
| YVQEKPDGLKRRQQLEEELLRAKI [R6P] | 1.94 |
| YVQEKEDGLKRRQQLEEELLRAKI [R6E] | 3.26 |
| YVQEKIDGLKRRQQLEEELLRAKI [R6I] | 2.66 |
| YVQEKFDGLKRRQQLEEELLRAKI [R6F] | 2.14 |
| YVQEKDDGLKRRQQLEEELLRAKI [R6D] | 2.87 |

| Variant | protein stability index |
| --- | --- |
| YVQEKKDGLKRRQQLEEELLRAKI [R6K] | 1.96 |
| YVQEKGDGLKRRQQLEEELLRAKI [R6G] | 2.39 |
| YVQEKQDGLKRRQQLEEELLRAKI [R6Q] | 2.39 |
| YVQEKLDGLKRRQQLEEELLRAKI [R6L] | 2.46 |
| YVQEKNDGLKRRQQLEEELLRAKI [R6N] | 2.31 |
| YVQEKADGLKRRQQLEEELLRAKI [R6A] | 2.26 |
| YVQEKWDGLKRRQQLEEELLRAKI [R6W] | 2.07 |
| YVQEKVDGLKRRQQLEEELLRAKI [R6V] | 2.23 |
| YVQEKSDGLKRRQQLEEELLRAKI [R6S] | 1.75 |
| YVQEKYDGLKRRQQLEEELLRAKI [R6Y] | 2.18 |
| YVQEKTDGLKRRQQLEEELLRAKI [R6T] | 2.49 |
| YVQEKMDGLKRRQQLEEELLRAKI [R6M] | 2.12 |
| YVQEKRDGLKRRQGLEEELLRAKI [Q14G] | 2.33 |
| YVQEKRDGLKRRQILEEELLRAKI [Q14I] | 1.76 |
| YVQEKRDGLKRRQKLEEELLRAKI [Q14K] | 2.35 |
| YVQEKRDGLKRRQDLEEELLRAKI [Q14D] | 2.2 |
| YVQEKRDGLKRRQCLEEELLRAKI [Q14C] | 1.77 |
| YVQEKRDGLKRRQELEEELLRAKI [Q14E] | 2 |
| YVQEKRDGLKRRQALEEELLRAKI [Q14A] | 1.93 |
| YVQEKRDGLKRRQHLEEELLRAKI [Q14H] | 1.94 |
| YVQEKRDGLKRRQFLEEELLRAKI [Q14F] | 2.12 |
| YVQEKRDNLKRRQQLEEELLRAKI [G8N] | 1.49 |
